Data on five molecules can be found in patent publication US9260754B2, “Connexin mutation detection for lymphatic variation and disease” (University of Pittsburgh—Of the Commonwealth System of …, priority 2010, dated 2016).

Assay [1] has as its system HeLa cells. The assay is described as follows: Cx47 gap junction plaque formation by immunofluorescent confocal microscopy in transfected HeLa cells. It is filed as cell-based, human. The settings on record: near confluent transfected HeLa cells. Here is the method:
Human neonatal foreskin was collected anonymously as discarded tissue according to an IRB protocol. Samples were collected immediately after harvest in DMEM, then fixed in 2% paraformaldehyde for 2 hrs, then stored in 30% sucrose in 1×PBS overnight for cryosectioning, and sectioned in 6 μm slices at −30° C. Transfected (stable and transient) and untransfected HeLa cells were grown to near confluence in coverslip bottom dishes. All cells were rinsed with PBS and fixed with 2% paraformaldehyde. Subsequently, tissue and HeLa cells were processed similarly: following permeabilization with 0.1% Triton X, cells were blocked with 2% BSA. A human Cx47 antibody (ab) was obtained from the S. Scherer laboratory: polyclonal rabbit against amino acids 344-399 in the cytoplasmic C-terminal tail; we used human CNS tissue and positive oligodendrocyte staining as a positive control and primary antibody delete and rabbit IgG as negative controls (data not shown). Cx47 ab was diluted in 0.5% BSA in a 1:200 ratio, applied to cells and incubated at RT for one hour. Mouse monoclonal Proxl (Chemicon) was used as a lymphatic marker for the foreskin samples. Cells were incubated with the secondary abs (Donkey Anti-Rabbit Cy5 and Donkey Anti-Mouse Cy3; Invitrogen) for one hour at RT and washed; Draq5 was used as a nuclear marker. HeLa images were acquired with an inverted Olympus Fluoview 1000 Confocal Microscope 100× oil, 1.4 NA objective. Foreskin images were acquired on a Zeiss Meta LSM 510 inverted confocal microscope with 40× oil, 1.3 N.A. objective. LECs (primary human microvascular adult dermal lymphatics; Lonza) were grown in fibronectin coated coverslip bottom MatTeks dishes in EGM™-2 MV—Microvascular Endothelial Cell Medium-2 (Lonza Inc.) to approximately 80% confluence, and prepared similarly but a commercially available (AbCam) Cx47 ab, polyclonal rabbit against amino acids 41-70 in the human sequence was used along with Drag 5 nuclear marker and phalloidin to mark f-actin.
Immunofluorescence microscopy determines the presence or absence of Cx47 gap junction plaques when the constructs are transiently expressed in HeLa cells. Cx plaques reflect a physiologic accumulation of Cx channels in the cell membrane between cells (tens to thousands of channels); thus plaques are indicative of normal trafficking and gap junction formation at the cell membrane.
Immunofluorescence microscopy determines the presence or absence of Cx47 gap junction plaques when the constructs are transiently expressed in HeLa cells. A human Cx47 antibody was obtained: polyclonal rabbit against amino acids 344-399 in the cytoplasmic C-terminal tail (Orthmann-Murphy J L, et al. Mol Cell Neurosci 2007; 34:629-41); we used human CNS tissue and positive oligodendrocyte staining as a positive control and primary antibody delete as a negative control (data not shown). Cultured HeLa cells were routinely fixed and stained with the primary antibodies against Cx47, along with a nuclear marker, and transfected cells were identified by their EGFP signal. Plaques were imaged using an Olympus Fluoview 1000 confocal microscope, 100× oil objective.

For assay [2], the system named is HeLa cell pairs. The assay is described as follows: Dual whole cell patch clamp recording of coupling current in transfected HeLa cell pairs. The format is cell-based, human. The settings on record: for electrical coupling: Table 6 (Example 4); for electrical coupling / elect coupling: HeLa cell pairs, 100 mV step, mean ± SEM; for electrical coupling / functional channels in HeLa cell pairs (in words): transfected HeLa cell pairs, voltage step protocol −100 to +100 mV; for elect coupling: Table 3 (Example 2). The protocol: Coupling currents were recorded using simultaneous double whole-cell patch clamp recordings from isolated pairs of cells that were in contact with one another (determined visually) as previously described. Briefly, the pipette solution consisted of (mM): 130 CsCl, 10 EGTA, 10 HEPES, 3 Mg-ATP, 2 Na-ATP, 0.5 CaCl2, pH 7.3. The culture was bathed in a solution consisting of (mM): 140 NaCl, 5 HEPES, 5 glucose, 4 KCl, 2 CsCl, 2 CaCl2, 2 pyruvate, 1 BaCl2, pH 7.3. Transfected HeLas undergo electrophysiologic analysis in a blinded manner. Pairs of cells were chosen for study only if both expressed the GFP marker indicative of successful transfections; both stable and transient transfectants were analyzed. Patch pipettes were fabricated from borosilicate glass, and coupling currents were amplified by Axopatch 200A amplifiers, filtered at 1 KHz, and digitized at 5 KHz for subsequent analysis using pClamp software (Axon Instruments/Molecular Devices; Sunnyvale, Calif.). All experiments were carried out at room temperature (22° C.). Coupling current was quantified by measuring the peak current recorded in the pair when the neighboring cell received a 100 mV step membrane potential change (in both positive and negative directions). Step changes in membrane potential were delivered to each cell in the pair in sequence and the average current recorded in the neighboring cell was determined and divided by 100 to generate coupling current expressed in pA/mV. Means±SEM were calculated and statistical significance using a one-way analysis of variance and Tukey's post-hoc test, p<0.05.
Coupling current is quantified by measuring the peak current recorded in the pair when the neighboring cell receives a 100 mV step membrane potential change (in both positive and negative directions). Step changes in membrane potential are delivered to each cell in the pair in sequence and the average current recorded in the neighboring cell determined and divided by 100 to generate coupling current expressed in pA/mV (FIG. 6C). Replicate measurements (n=3-6) are made on at least two different days. […] The untransfected HeLa cell pairs also show minimal channel function, as predicted.
Electrophysiologic characteristics of GJIC were measured between HeLa cell pairs transfected with the mutant constructs (as indicated by EGFP expression) by dual whole cell patch clamp recording. All experiments were carried out in a blinded manner. Coupling current is quantified by measuring the peak current recorded in the pair when the neighboring cell receives a 100 mV step membrane potential change (in both positive and negative directions). Step changes in membrane potential are delivered to each cell in the pair in sequence and the average current recorded in the neighboring cell determined and divided by 100 to generate coupling current expressed in pA/mV. Untransfected HeLa cells and cells transfected with empty vector (i.e., no hCx47) were used as additional controls.

Assay [3] concerns HeLa cells. In words: Wound assay (proliferation/migration) in confluent transfected HeLa cells. The following applies: fraction of original wound in HeLa cell monolayer after 24 hrs; mean ± SEM. It is filed as cell-based, human. Here is the method:
The wound assay, a measure of proliferation/migration, was performed using differential interference contrast time lapse of over 24 hrs using confluent transfected HeLa cells. Analysis was done using TScratch (Geback T, et al. TScratch: a novel and simple software tool for automated analysis of monolayer wound healing assays. Biotechniques 2009; 46:265-74), mean±SEM of at least 10 positions along wound; the scrape width was normalized to the first image for each position. In all cases a two tailed student's T test was applied with p<0.05 considered significant.

In assay [4] the test system is Adult human dermal lymphatic microvascular endothelial cells. In words: Lucifer yellow microinjection dye spread in lymphatic endothelial cells expressing mutant constructs. It is filed as cell-based. The protocol:
Adult human dermal lymphatic microvascular endothelial cells were cultured in EGM™-2 MV (both from Lonza). Cells were electroporated with 2 μg cDNA of the EGFP tagged mutant constructs and then selected with G418 as described above. Cells were microinjected using a combination (1:4 ratio) of 70 kd Texas Red dextran (Invitrogen) to mark injected cell for reference and Lucifer yellow, a known gap junction permeable dye (m.w. 443, −2 charge), to assess change in extent of spread (Abbaci M, et al. Advantages and limitations of commonly used methods to assay the molecular permeability of gap junctional intercellular communication. Biotechniques 2008; 45:33-52, 6-62). All cells were injected using constant conditions and cells were scored for dye spread in tiers from reference cell, using constant exposure time and thresholding, and were imaged using a Nikon TE2000 with temperature controlled motorized stage and Qlmaging Retiga CCD camera. Images were obtained using differential interference contrast (DIC) and standard filters for EGFP (identify expression of mutation), DAPI (for Lucifer yellow) and dsRed (for dextran) preinjection, immediately post-injection and 2 min after injection. Results were calculated as mean SEM and statistical significance was determined in comparison to WT-hCx47-EGFP expressing cells using a Mann-Whitney Test.

Assay [5] deals with HeLa cells. In words: Calcein AM scrape loading and dye transfer in stably transfected HeLa cells. The format is cell-based, human. The following applies: for dye transfer: ratio, rate normalized to untransfected HeLa cells, Calcein AM scrape loading, 10 min, stably transfected HeLa, mean ± SEM. Here is the method:
A confluent monolayer of HeLa cells (untransfected and stably transfected, as described above) was grown in DMEM with 10% FBS in coverslip bottom plates (MatTek) and placed in a temperature controlled microincubator (Zeiss). A 10×, 0.4 NA objective was used to collect DIC and GFP images every 5 seconds for 10 minutes without changing media. A pipette loaded with 1 μl Calcein AM (Invitrogen), a gap junction permissive dye with molecular weight 662, −4 charge when intracellular and fluorescent, was used to create a scrape across the monolayer. At least 5 replicate dishes were analyzed on the same day, and WT hCx47 expressing HeLas were grown and assayed as a concurrent control; assays were performed on at least 2 different batches of HeLa cells on different days. Quantitation of the rate of spread was calculated using MetaMorph, by obtaining integrated intensity at the 10th time point, within the first minute of imaging, and then at the endpoint at 10 min, and subtracting the initial intensity from that at the endpoint. Results are reported as mean and SEM, and tested for significance (p<0.05) using an unpaired Student's t-test.
In these mutants, Cx47 appears to concentrate in the ER. Unlike electrophysiologic measurements, dye transfer assays are used to assess GJIC of relatively large molecules. We also found significant differences in GJIC in HeLa cells overexpressing Cx47 lymphedema associated mutations by assessing rates of dye transfer in a conventional scrape assay using stably transfected HeLa cells normalized to rates in untransfected HeLa cells (FIG. 7D; Table 3). […] It is not surprising that the mutants show some differences in GJIC between the electrophysiologic and dye transfer assays given that they are designed to measure different kinds of transport and that Cx channel permeability is now believed to be governed by factors including molecular shape, charge and size, in addition to channel conformation and composition.

Positions count from the first letter of the chain named. In names and notes the source's numbering stands. Entries after “also recorded” stand apart in the source; their conditions may differ.

B1: G183C: Cx47 missense mutant G183C (547G>T), intracellular loop, construct expressed in HeLa cells (protein, listed as Homo sapiens)
chain: MSWSFLTRLLEEIHNHSTFVGKVWLTVLVVFRIVLTAVGGEAIYSDEQAKFTCNTRQPGCDNVCYDAFAPLSHVRFWVFQIVVISTPSVMYLGYAVHRLARASEQERRRALRRRPGPRRAPRAHLPPPHAGWPEPADLGEEEPMLGLGEEEEEEETGAAEGAGEEAEEAGAEEACTKAVGADCKAAGTPGPTGQHDGRRRIQREGLMRVYVAQLVARAAFEVAFLVGQYLLYGFEVRPFFPCSRQPCPHVVDCFVSRPTEKTVFLLVMYVVSCLCLLLNLCEMAHLGLGSAQDAVRGRRGPPASAPAPAPRPPPCAFPAAAAGLACPPDYSLVVRAAERARAHDQNLANLALQALRDGAAAGDRDRDSSPCVGLPAASRGPPRAGAPASRTGSATSAGTVGEQGRPGTHERPGAKPRAGSEKGSASSRDGKTTVWI
Turning to B1, the “Cx47 plaque formation (in words)” value in assay [1] is given as “Cx47 intercellular plaques”. Besides, in assay [2], the electrical coupling was 68.6 pA/mV and the “electrical coupling / functional channels in HeLa cell pairs (in words)” value was “increased electrical coupling; also recorded: increased peak coupling currents”. Moreover, the wound assay in assay [3] stood at 0.68.

B2: H409Y: Cx47 missense mutant H409Y (1225C>T), C terminal, construct expressed in HeLa cells or LECs (protein, listed as Homo sapiens)
chain: B1 chain with C183G, H409Y
Take B2: in assay [1], the “Cx47 plaque formation (in words)” value is given as “Cx47 intercellular plaques”. In assay [2], the electrical coupling worked out at 46.4 pA/mV and the “electrical coupling / functional channels in HeLa cell pairs (in words)” value is listed as “well coupled”. The wound assay in assay [3] was 0.73. In addition, the LEC spread in assay [4] (Dye spread to tiers of LECs after 2 min, Lucifer yellow microinjection, mean ± SEM) is on record as 0.07 tiers. Besides, the “dye transfer of Lucifer yellow after microinjection compared to WT-hCx47-EGFP expressing LECs (in words)” value in assay [4] (LECs expressing the mutations) is reported as “dramatically impaired dye transfer”.

B3: P313L: Cx47 missense mutant P313L (938C>T), C-terminal, construct expressed in HeLa cells (protein, listed as Homo sapiens)
chain: B1 chain with C183G, P313L
In the case of B3, the dye transfer in assay [5] is given as 2.10. In assay [2], the elect coupling is given as 37.6 pA/mV and the “electrical coupling / functional channels in HeLa cell pairs (in words)” value was “well coupled”.

B4: S45L: Cx47 missense mutant S45L (134C>T), extracellular loop 1, construct expressed in HeLa cells (protein, listed as Homo sapiens)
chain: B1 chain with S45L, C183G
On to B4, for which, in assay [1], the “Cx47 plaque formation (in words)” value was “absence; also recorded: fail to demonstrate Cx 47 plaques”. The dye transfer in assay [5] was 1.11. For the same molecule, in assay [2], the elect coupling came out at 0.1 pA/mV and the “electrical coupling / functional channels in HeLa cell pairs (in words)” value is “absence of coupling; also recorded: do not exhibit functional channels”.

B5: R257C: Cx47 missense mutant R257C (769C>T), extracellular loop 2, construct expressed in HeLa cells (protein, listed as Homo sapiens)
chain: B1 chain with C183G, R257C
Take B5: in assay [1], the “Cx47 plaque formation (in words)” value was “absence; also recorded: fail to demonstrate Cx 47 plaques”. For the same molecule, the dye transfer in assay [5] was 2.56. Further, the “Calcein AM dye transfer compared to WT-hCx47 transfected HeLa cells (in words)” value in assay [5] (stably transfected HeLa cells, scrape assay) was “significantly greater dye transfer”. For the same molecule, in assay [2], the elect coupling came out at 0.0 pA/mV and the “electrical coupling / functional channels in HeLa cell pairs (in words)” value is “absence of coupling; also recorded: do not exhibit functional channels”.
